In patent US20080267974A1 (SCHERING, published 2008):
Residue numbers refer to the chain shown, from its start. In names and notes the source's numbering stands. Several values for one entry are separate records, joined by “and”; a condition that tells them apart may be missing. Equal entries are not always repeated.

B1: MAb 812 (antibody, V domains shown)
VH: EVQLLESGGGLIQPGGSLRLSCAASGFTVSSNYMSWVRQAPGKGLEWVSVIYSGGRTYYADSVKGRFTISRDSSKNTLYLQMNSLRAEDTAVYYCARNYYGSTYDYWGQGTLVTVSS
VL: EIVLTQSPVTLSVPPGERASLSCRASQNIYTAVAWYQQKPGQAPRLLIYGASTRATGIPARFSGGGSGTDYTLTISSLESEDFAVYHCQQYFSWPLTFGGGTKLEIK
notes: IgG1/kappa, CHO; also called H1192/L308
B2: MAb 695 (antibody, V domains shown)
VH: B1 VH
VL: B1 VL with F92H
notes: also called 121 D11; H1192/L250
B3: MAb 698 (antibody, V domains shown)
VH: B1 VH with S30G, S31N, G54A, R56S, T68I, S73N, N76D, L78V, A87V, E88D
VL: B1 VL with F92H
notes: also called 131 E11; H1272/L250
B4: MAb 714 (antibody, V domains shown)
VH: B1 VH with L5V, I12V, R19K, S53R, R56S, S73I, K75R, T77M, L78V
VL: B1 VL with F92H
notes: also called 141 A10; H1277/L250
B5: MAb 715 (antibody, V domains shown)
VH: B1 VH with S31N, E46Q, S49A, R56S, A60P, V63M, S73N
VL: B1 VL with F92H
notes: also called 141 F2; H1278/L250
B6: MAb 805 (antibody, V domains shown)
VH: EVQLVESGGGLIQPGGSLRLSCAVSGLNVSRDYMSWVRQAPGKGLEWISVIYRGGATMYADSVKGRFTISRDTSKNTVFLQMSRLKVADTAVYYCARNYYGSTYDYWGQGTLVTVSS
VL: B1 VL with F92H
notes: also called 156 H7; H1329/L250
B7: MAb 699 (antibody, V domains shown)
VH: B1 VH with R56S, S73N, S74A, L78V, A87S
VL: B1 VL with F92H
notes: also called 183 E9; H1273/L250
B8: MAb 696 (antibody, V domains shown)
VH: B1 VH with L5V
VL: B1 VL with F92H
notes: also called 121 E1B; H1193/L250
B9: MAb 716 (antibody, V domains shown)
VH: B1 VH with R56S, S73N
VL: B1 VL with F92H
notes: also called 142 F2; H1280/L250
B10: MAb 1988 (antibody, V domains shown)
VH: B6 VH with G54I, Y104L
VL: B1 VL with G50N, Y91W, F92H
notes: IgG1/kappa, CHO; also called H1813/L459
B11: MAb 2019 (antibody, V domains shown)
VH: B6 VH with A56V, Y104L
VL: B1 VL with G50N, Y91W, F92H
notes: IgG1/kappa, CHO; also called H1844/L459
B12: MAb 1999 (antibody, V domains shown)
VH: B6 VH with A56I, Y104L
VL: B1 VL with G50N, Y91W, F92H
notes: IgG1/kappa, CHO; also called H1824/L459
B13: MAb 1989 (antibody, V domains shown)
VH: B6 VH with G54V, Y104L
VL: B1 VL with G50N, Y91W, F92H
notes: IgG1/kappa, CHO; also called H1814/L459
B14: MAb 2006 (antibody, V domains shown)
VH: B6 VH with M58H, Y104L
VL: B1 VL with G50N, Y91W, F92H
notes: IgG1/kappa, CHO; also called H1831/L459
B15: MAb 1775 (antibody, V domains shown)
VH: B6 VH with Y104M
VL: B1 VL with Y91W, F92H
notes: IgG1/kappa, CHO; also called H1687/L332
B16: MAb 1714 (antibody, V domains shown)
VH: B6 VH with Y104F
VL: B1 VL with Y91W, F92H
notes: IgG1/kappa, CHO; also called H1678/L332
B17: MAb 1777 (antibody, V domains shown)
VH: B6 VH with Y104I
VL: B1 VL with Y91W, F92H
notes: IgG1/kappa, CHO; also called H1684/L332
B18: MAb 1007 (antibody, V domains shown)
VH: B6 VH
VL: B1 VL with Y91W, F92H
B19: MAb 1131 (antibody, V domains shown)
VH: B1 VH with Y104H
VL: B1 VL with Y91W, F92H
notes: IgG1/kappa, CHO; also called H1518/L332
B20: MAb 1028 (antibody, V domains shown)
VH: B1 VH with N98T
VL: B1 VL with F92H
notes: IgG1/kappa, CHO; also called H1478/L250
B21: MAb 1037 (antibody, V domains shown)
VH: B1 VH with Y104F
VL: B1 VL with F92H
notes: IgG1/kappa, CHO; also called H1482/L250
B22: MAb 1043 (antibody, V domains shown)
VH: B1 VH with Y104M
VL: B1 VL with Y91W, F92H
notes: IgG1/kappa, CHO; also called H1483/L332
B23: MAb 874 (antibody, V domains shown)
VH: B1 VH with Y100A
VL: B1 VL with F92H
notes: IgG1/kappa, CHO; also called H1373/L250
B24: MAb 1066 (antibody, V domains shown)
VH: B1 VH with Y104L
VL: B1 VL with F92H
notes: IgG1/kappa, CHO; also called H1487/L250
B25: MAb 1038 (antibody, V domains shown)
VH: B1 VH with Y104M
VL: B1 VL with F92H
notes: IgG1/kappa, CHO; also called H1483/L250
B26: MAb 1067 (antibody, V domains shown)
VH: B1 VH with Y104L
VL: B1 VL with Y91W, F92H
notes: IgG1/kappa, CHO; also called H1487/L332
B27: MAb 892 (antibody, V domains shown)
VH: B1 VH with T103L
VL: B1 VL with F92H
notes: IgG1/kappa, CHO; also called H1388/L250
B28: MAb 1042 (antibody, V domains shown)
VH: B1 VH with Y104F
VL: B1 VL with Y91W, F92H
notes: IgG1/kappa, CHO; also called H1482/L332
B29: MAb 1210 (antibody, V domains shown)
VH: B1 VH with Y104V
VL: B1 VL with Y91W, F92H
notes: IgG1/kappa, CHO; also called H1557/L332
B30: MAb 1029 (antibody, V domains shown)
VH: B1 VH with N98L
VL: B1 VL with F92H
notes: IgG1/kappa, CHO; also called H1479/L250
B31: MAb 1132 (antibody, V domains shown)
VH: B1 VH with Y104H
VL: B1 VL with F92H
notes: IgG1/kappa, CHO; also called H1518/L250
B32: MAb 1036 (antibody, V domains shown)
VH: B1 VH with N98T
VL: B1 VL with Y91W, F92H
notes: IgG1/kappa, CHO; also called H1478/L332

These binders were tested against T1, tumor necrosis factor alpha (TNFα) (human, UniProt P01375 77-233) (assay: affinity by IC50 ELISA (so named in paragraph 380)).
T1 sequence (P01375 77-233 limits assumed): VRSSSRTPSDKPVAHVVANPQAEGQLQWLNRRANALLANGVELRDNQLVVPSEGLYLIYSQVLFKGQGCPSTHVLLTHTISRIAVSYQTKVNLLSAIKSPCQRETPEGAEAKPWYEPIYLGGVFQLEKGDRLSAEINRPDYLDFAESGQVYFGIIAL

Binder	Affinity [nM]
B1	0.32

Biological target: T1, tumor necrosis factor alpha (TNFα)
Assay: affinity by IC50 ELISA (so named in paragraph 380)
Remark: another data set of the same source

Binder	Affinity [nM]
B2	0.6
B3	2.3
B4	0.4
B5	0.6
B6	0.6
B7	7.3
B8	0.6
B9	> 10

Biological target: T1, tumor necrosis factor alpha (TNFα)
Assay: affinity by IC50 ELISA (so named in paragraph 380)
Remark: another data set of the same source

Binder	Affinity [nM]
B10	0.04
B11	0.04
B12	0.04
B13	0.05
B14	0.04

Biological target: T1, tumor necrosis factor alpha (TNFα)
Assay: affinity by IC50 ELISA (so named in paragraph 380)
Remark: another data set of the same source

Binder	Affinity [nM]
B15	0.22
B16	0.16
B17	0.18

The binders below were run against T1, tumor necrosis factor alpha (TNFα) (assay: cell-based or functional assay).

Binder	IC50, TNFα cytotoxicity assay (WEHI-13VAR cells)
B2	22.9 nM
B10	0.2 nM
B15	6.5 nM
B11	0.3 nM
B3	152 nM
B4	7.75 nM
B12	0.3 nM
B16	1.3 nM
B5	21.4 nM
B17	7 nM
B6	4.8 nM and 10.3 nM
B18	12.2 nM
B7	350 nM
B13	0.2 nM
B9	31.4 nM
B14	0.3 nM

Biological target: T1, tumor necrosis factor alpha (TNFα)
Assay: affinity by IC50 ELISA (so named in paragraph 380)
Remark: another data set of the same source

Binder	Affinity [nM]
B2	0.6
B3	2.3
B4	0.4
B5	0.6
B6	0.6
B7	7.3
B8	0.6
B9	> 10

Biological target: T1, tumor necrosis factor alpha (TNFα)
Assay: affinity by IC50 ELISA (so named in paragraph 380)
Remark: another data set of the same source

Binder	Affinity [nM]
B19	0.13
B20	0.32
B21	0.12
B22	0.31
B10	0.04
B23	0.56
B24	0.13
B15	0.22
B11	0.04
B25	0.25
B26	0.12
B27	0.43
B12	0.04
B16	0.16
B17	0.18
B28	0.07
B29	0.14
B30	0.36
B13	0.05
B1	0.32
B31	0.1
B14	0.04
B32	0.18

Biological target: T1, tumor necrosis factor alpha (TNFα)
Assay: affinity by IC50 ELISA (so named in paragraph 380)
Remark: another data set of the same source

Binder	Affinity [nM]
B19	0.13
B22	0.31
B26	0.12
B28	0.07
B29	0.14
B32	0.18

Biological target: T1, tumor necrosis factor alpha (TNFα)
Assay: affinity by IC50 ELISA (so named in paragraph 380)
Remark: another data set of the same source

Binder	Affinity [nM]
B20	0.32
B21	0.12
B23	0.56
B24	0.13
B25	0.25
B27	0.43
B30	0.36
B31	0.1
